# Data reported in PMC4156074 (2014).
# B1: Fab M0162-A04 (lead Fab, parent of the affinity maturation) (Fab, V domains shown)
# VH: EVQLLESGGGLVQPGGSLRLSCAASGFTFSHYIMMWVRQAPGKGLEWVSGIYSSGGITVYADSVKGRFTISRDNSKNTLYLQMNSLRAEDTAVYYCAYRRTGIPRRDAFDIWGQGTMVTVSS
# VL: DIQMTQSPSTLSASVGDRVTITCRASQSISSWLAWYQQKPGKAPNLLIYKASTLESGVPSRFSGSGSGTEFTLTISSLQPDDFATYYCQQYNTYWTFGQGTKVEIK
# Biological target: Full-length human plasma kallikrein, activated form (human, UniProt P03952 20-390; P03952 391-638)
# Assay: apparent Ki
# Chain of Full-length human plasma kallikrein, activated form (P03952 20-390, chain 1 of 2): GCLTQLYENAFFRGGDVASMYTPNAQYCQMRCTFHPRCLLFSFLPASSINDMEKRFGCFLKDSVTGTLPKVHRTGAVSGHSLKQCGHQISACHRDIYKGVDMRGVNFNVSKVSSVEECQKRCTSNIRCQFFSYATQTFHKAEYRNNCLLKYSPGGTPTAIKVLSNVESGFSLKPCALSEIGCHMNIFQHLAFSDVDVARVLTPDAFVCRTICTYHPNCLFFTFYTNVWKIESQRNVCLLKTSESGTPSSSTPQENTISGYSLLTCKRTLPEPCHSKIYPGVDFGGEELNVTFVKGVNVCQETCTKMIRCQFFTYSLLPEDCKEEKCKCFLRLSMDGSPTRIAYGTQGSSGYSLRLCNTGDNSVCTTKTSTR
# Chain of Full-length human plasma kallikrein, activated form (P03952 391-638, chain 2 of 2): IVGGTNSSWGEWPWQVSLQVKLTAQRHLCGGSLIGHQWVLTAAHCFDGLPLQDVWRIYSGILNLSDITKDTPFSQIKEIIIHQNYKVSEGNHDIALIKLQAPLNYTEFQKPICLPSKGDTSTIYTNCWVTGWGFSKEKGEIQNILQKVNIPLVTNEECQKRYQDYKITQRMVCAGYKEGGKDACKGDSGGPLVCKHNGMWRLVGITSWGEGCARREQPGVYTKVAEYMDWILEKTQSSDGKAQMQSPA
binder,measurement,value
B1,Ki,5.39 nM
